Reference: patent US20220251595A1, “ENGINEERED ATRLP23 PATTERN RECOGNITION RECEPTORS AND METHODS OF USE” (priority 2019, published 2022)

B1: AtRLP23+TM-AtEFR-3×FLAG: AtRLP23 apoplastic, eJM and TM domains, AtEFR cytoplasmic domain, 3×FLAG; SEQ ID NO: 33, 34 (protein)
chain: MSKALLHLHFLSLFLLCCVCHSSIFTLNFHFTGIVACRPHQIQAFTKFTNEFDTRGCNNSDTFNGVWCDNSTGAVAVLQLRKCLSGTLKSNSSLFGFHQLRYVDLQNNNLTSSSLPSGFGNLKRLEGLFLSSNGFLGQVPSSFSNLTMLAQLDLSYNKLTGSFPLVRGLRKLIVLDLSYNHFSGTLNPNSSLFELHQLRYLNLAFNNFSSSLPSKFGNLHRLENLILSSNGFSGQVPSTISNLTRLTKLYLDQNKLTSSFPLVQNLTNLYELDLSYNKFFGVIPSSLLTLPFLAHLALRENNLAGSVEVSNSSTSSRLEIMYLGSNHFEGQILEPISKLINLKHLDLSFLNTSYPIDLKLFSSLKSLRSLDLSGNSISSASLSSDSYIPLTLEMLTLRHCDINEFPNILKTLKELVYIDISNNRMKGKIPEWLWSLPLLQSVTLGNNYFTGFQGSAEILVNSSVLLLYLDSNNFEGALPDLPLSIKGFGVASNSFTSEIPLSICNRSSLAAIDLSYNNFTGPIPPCLRNLELVYLRNNNLEGSIPDALCDGASLRTLDVSHNRLTGKLPRSFVNCSSLKFLSVINNRIEDTFPFWLKALPNLQVLTLRSNRFYGPISPPHQGPLGFPELRIFEISDNKFTGSLPPNYFVNWKASSRTMNQDGGLYMVYEEKLFDEGGYGYTDALDLQYKGLHMEQAKALTSYAAIDFSGNRLEGQIPESIGLLKALIAVNISNNAFTGHIPLSMANLENLESLDMSRNQLSGTIPNGLGSISFLAYINVSHNQLTGEIPQGTQITGQSKSSFEGNAGLCGLPLKESCFGTGAPPMYHQKQEDKEEEEEEEEEEEEVLNGRAVAIGYGSGLLLGLAIAQVIASYKRKKKNNASDGNPSDSTTLGMFHEKVSYEELHSATSRFSSTNLIGSGNFGNVFKGLLGPENKLVAVKVLNLLKHGATKSFMAECETFKGIRHRNLVKLITVCSSLDSEGNDFRALVYEFMPKGSLDMWLQLEDLERVNDHSRSLTPAEKLNIAIDVASALEYLHVHCHDPVAHCDIKPSNILLDDDLTAHVSDFGLAQLLYKYDRESFLNQFSSAGVRGTIGYAAPEYGMGGQPSIQGDVYSFGILLLEMFSGKKPTDESFAGDYNLHSYTKSILSGCTSSGGSNAIDEGLRLVLQVGIKCSEEYPRDRMRTDEAVRELISIRSKFFSSKTTITESPRDAPQSSPQEWMLNTDMHTMASDYKDHDGDYKDHDLDAAAADYKDDDDK
modifications: Fusion protein
B2: AtRLP23-AtBAK1-3×FLAG: AtRLP23 apoplastic and eJM domains, AtBAK1 TM and cytoplasmic domains, 3×FLAG; SEQ ID NO: 25, 26 (protein)
chain: MSKALLHLHFLSLFLLCCVCHSSIFTLNFHFTGIVACRPHQIQAFTKFTNEFDTRGCNNSDTFNGVWCDNSTGAVAVLQLRKCLSGTLKSNSSLFGFHQLRYVDLQNNNLTSSSLPSGFGNLKRLEGLFLSSNGFLGQVPSSFSNLTMLAQLDLSYNKLTGSFPLVRGLRKLIVLDLSYNHFSGTLNPNSSLFELHQLRYLNLAFNNFSSSLPSKFGNLHRLENLILSSNGFSGQVPSTISNLTRLTKLYLDQNKLTSSFPLVQNLTNLYELDLSYNKFFGVIPSSLLTLPFLAHLALRENNLAGSVEVSNSSTSSRLEIMYLGSNHFEGQILEPISKLINLKHLDLSFLNTSYPIDLKLFSSLKSLRSLDLSGNSISSASLSSDSYIPLTLEMLTLRHCDINEFPNILKTLKELVYIDISNNRMKGKIPEWLWSLPLLQSVTLGNNYFTGFQGSAEILVNSSVLLLYLDSNNFEGALPDLPLSIKGFGVASNSFTSEIPLSICNRSSLAAIDLSYNNFTGPIPPCLRNLELVYLRNNNLEGSIPDALCDGASLRTLDVSHNRLTGKLPRSFVNCSSLKFLSVINNRIEDTFPFWLKALPNLQVLTLRSNRFYGPISPPHQGPLGFPELRIFEISDNKFTGSLPPNYFVNWKASSRTMNQDGGLYMVYEEKLFDEGGYGYTDALDLQYKGLHMEQAKALTSYAAIDFSGNRLEGQIPESIGLLKALIAVNISNNAFTGHIPLSMANLENLESLDMSRNQLSGTIPNGLGSISFLAYINVSHNQLTGEIPQGTQITGQSKSSFEGNAGLCGLPLKESCFGTGAPPMYHQKQEDKEEEEEEEEEEEEVLNGRITGAIAGGVAAGAALLFAVPAIALAWWRRKKPQDHFFDVPAEEDPEVHLGQLKRFSLRELQVASDNFSNKNILGRGGFGKVYKGRLADGTLVAVKRLKEERTQGGELQFQTEVEMISMAVHRNLLRLRGFCMTPTERLLVYPYMANGSVASCLRERPESQPPLDWPKRQRIALGSARGLAYLHDHCDPKIIHRDVKAANILLDEEFEAVVGDFGLAKLMDYKDTHVTTAVRGTIGHIAPEYLSTGKSSEKTDVFGYGVMLLELITGQRAFDLARLANDDDVMLLDWVKGLLKEKKLEALVDVDLQGNYKDEEVEQLIQVALLCTQSSPMERPKMSEVVRMLEGDGLAERWEEWQKEEMFRQDFNYPTHHPAVSGWIIGDSTSQIENEYPSGPRSDYKDHDGDYKDHDLDAAAADYKDDDDK
modifications: Fusion protein
B3: AtRLP23+TM-AtBAK1-3×FLAG: AtRLP23 apoplastic, eJM and TM domains, AtBAK1 cytoplasmic domain, 3×FLAG; SEQ ID NO: 37, 38 (protein)
chain: MSKALLHLHFLSLFLLCCVCHSSIFTLNFHFTGIVACRPHQIQAFTKFTNEFDTRGCNNSDTFNGVWCDNSTGAVAVLQLRKCLSGTLKSNSSLFGFHQLRYVDLQNNNLTSSSLPSGFGNLKRLEGLFLSSNGFLGQVPSSFSNLTMLAQLDLSYNKLTGSFPLVRGLRKLIVLDLSYNHFSGTLNPNSSLFELHQLRYLNLAFNNFSSSLPSKFGNLHRLENLILSSNGFSGQVPSTISNLTRLTKLYLDQNKLTSSFPLVQNLTNLYELDLSYNKFFGVIPSSLLTLPFLAHLALRENNLAGSVEVSNSSTSSRLEIMYLGSNHFEGQILEPISKLINLKHLDLSFLNTSYPIDLKLFSSLKSLRSLDLSGNSISSASLSSDSYIPLTLEMLTLRHCDINEFPNILKTLKELVYIDISNNRMKGKIPEWLWSLPLLQSVTLGNNYFTGFQGSAEILVNSSVLLLYLDSNNFEGALPDLPLSIKGFGVASNSFTSEIPLSICNRSSLAAIDLSYNNFTGPIPPCLRNLELVYLRNNNLEGSIPDALCDGASLRTLDVSHNRLTGKLPRSFVNCSSLKFLSVINNRIEDTFPFWLKALPNLQVLTLRSNRFYGPISPPHQGPLGFPELRIFEISDNKFTGSLPPNYFVNWKASSRTMNQDGGLYMVYEEKLFDEGGYGYTDALDLQYKGLHMEQAKALTSYAAIDFSGNRLEGQIPESIGLLKALIAVNISNNAFTGHIPLSMANLENLESLDMSRNQLSGTIPNGLGSISFLAYINVSHNQLTGEIPQGTQITGQSKSSFEGNAGLCGLPLKESCFGTGAPPMYHQKQEDKEEEEEEEEEEEEVLNGRAVAIGYGSGLLLGLAIAQVIASYRRKKPQDHFFDVPAEEDPEVHLGQLKRFSLRELQVASDNFSNKNILGRGGFGKVYKGRLADGTLVAVKRLKEERTQGGELQFQTEVEMISMAVHRNLLRLRGFCMTPTERLLVYPYMANGSVASCLRERPESQPPLDWPKRQRIALGSARGLAYLHDHCDPKIIHRDVKAANILLDEEFEAVVGDFGLAKLMDYKDTHVTTAVRGTIGHIAPEYLSTGKSSEKTDVFGYGVMLLELITGQRAFDLARLANDDDVMLLDWVKGLLKEKKLEALVDVDLQGNYKDEEVEQLIQVALLCTQSSPMERPKMSEVVRMLEGDGLAERWEEWQKEEMFRQDFNYPTHHPAVSGWIIGDSTSQIENEYPSGPRSDYKDHDGDYKDHDLDAAAADYKDDDDK
modifications: Fusion protein
B4: AtRLP23-AtSOBIR1-3×FLAG: AtRLP23 apoplastic and eJM domains, AtSOBIR1 TM and cytoplasmic domains, 3×FLAG; SEQ ID NO: 29, 30 (protein)
chain: MSKALLHLHFLSLFLLCCVCHSSIFTLNFHFTGIVACRPHQIQAFTKFTNEFDTRGCNNSDTFNGVWCDNSTGAVAVLQLRKCLSGTLKSNSSLFGFHQLRYVDLQNNNLTSSSLPSGFGNLKRLEGLFLSSNGFLGQVPSSFSNLTMLAQLDLSYNKLTGSFPLVRGLRKLIVLDLSYNHFSGTLNPNSSLFELHQLRYLNLAFNNFSSSLPSKFGNLHRLENLILSSNGFSGQVPSTISNLTRLTKLYLDQNKLTSSFPLVQNLTNLYELDLSYNKFFGVIPSSLLTLPFLAHLALRENNLAGSVEVSNSSTSSRLEIMYLGSNHFEGQILEPISKLINLKHLDLSFLNTSYPIDLKLFSSLKSLRSLDLSGNSISSASLSSDSYIPLTLEMLTLRHCDINEFPNILKTLKELVYIDISNNRMKGKIPEWLWSLPLLQSVTLGNNYFTGFQGSAEILVNSSVLLLYLDSNNFEGALPDLPLSIKGFGVASNSFTSEIPLSICNRSSLAAIDLSYNNFTGPIPPCLRNLELVYLRNNNLEGSIPDALCDGASLRTLDVSHNRLTGKLPRSFVNCSSLKFLSVINNRIEDTFPFWLKALPNLQVLTLRSNRFYGPISPPHQGPLGFPELRIFEISDNKFTGSLPPNYFVNWKASSRTMNQDGGLYMVYEEKLFDEGGYGYTDALDLQYKGLHMEQAKALTSYAAIDFSGNRLEGQIPESIGLLKALIAVNISNNAFTGHIPLSMANLENLESLDMSRNQLSGTIPNGLGSISFLAYINVSHNQLTGEIPQGTQITGQSKSSFEGNAGLCGLPLKESCFGTGAPPMYHQKQEDKEEEEEEEEEEEEVLNGRVAAWILGFVVGAIGGTISGFVFSVLFKLIIQAIRGSEKPPGPSIFSPLIKKAEDLAFLENEEALASLEIIGRGGCGEVFKAELPGSNGKIIAVKKVIQPPKDADELTDEDSKFLNKKMRQIRSEINTVGHIRHRNLLPLLAHVSRPECHYLVYEYMEKGSLQDILTDVQAGNQELMWPARHKIALGIAAGLEYLHMDHNPRIIHRDLKPANVLLDDDMEARISDFGLAKAMPDAVTHITTSHVAGTVGYIAPEFYQTHKFTDKCDIYSFGVILGILVIGKLPSDEFFQHTDEMSLIKWMRNIITSENPSLAIDPKLMDQGFDEQMLLVLKIACYCTLDDPKQRPNSKDVRTMLSQIKHSDYKDHDGDYKDHDLDAAAADYKDDDDK
modifications: Fusion protein

system: corn protoplasts; assay: Calcium burst in transiently transfected corn protoplasts, R-GECO1.2 fluorescence reporter; assay type: cell-based, Zea mays; conditions: Example 3, FIG. 4; 1 μM PpNLP20; 40 minutes; 384-well
Excerpt: Following ligand (also known as elicitor) binding, PRRs are activated and induce a transient increase of cytosolic Ca^2+ concentration as part of a PTI response. […] In a high-throughput method, the kinetics of PRR-dependent transient variation of cytosolic Ca^2+ concentration can be measured with a fluorimeter or luminometer and in microplate formats of 96 or 384 wells.
Fluorescence was monitored using a fluorimeter equipped with a 100 Hz xenon flash lamp with excitation at 556 nm and emission measured at 585 nm for 100 ms, every 22.6 seconds for 42 minutes.
All of the AtRLP23 constructs have an operably linked 2×35S+Ω promoter construct (SEQ ID NO: 72) and an operably linked rbcS terminator (SEQ ID NO: 73)
Fluorescence was monitored using a fluorimeter equipped with a 100 Hz xenon flash lamp with excitation at 556 nm and emission measured at 585 nm for 30 ms, every 20.2 seconds for 40 minutes. For each fluorescence measurement, the transient change in R-GECO1.2 fluorescence (ΔF) are calculated from background corrected intensity values as (F-Fo), where F represents the average fluorescence intensity of the a batch of protoplasts treated with elicitor, and Fo represents the average fluorescence intensity of the same batch of protoplasts treated with a control solution that lacks the elicitor but is otherwise identical or essentially identical in composition to the solution comprising the elicitor.

Q: For B1, which “responsiveness to PpNLP20 treatment compared to AtRLP23-3×FLAG (total transient increase of fluorescence)” value is on record?
A: comparable responsiveness

Q: With B2 as the molecule, how does the “responsiveness to PpNLP20 treatment compared to AtRLP23-3×FLAG (total transient increase of fluorescence)” value read?
A: reduced responsiveness

Q: With B3 as the molecule, how does the “responsiveness to PpNLP20 treatment compared to AtRLP23-3×FLAG (total transient increase of fluorescence)” value read?
A: reduced responsiveness

Q: For B4, which “responsiveness to PpNLP20 treatment compared to AtRLP23-3×FLAG (total transient increase of fluorescence)” value is on record?
A: reduced responsiveness
